Test results published in patent publication US20140274782A1, “AFFINITY REAGENTS AND METHODS FOR DETECTION, PURIFICATION, AND PROTEOMIC ANALYSIS OF METHYLATED PROTEINS” (The Board of Trustees of the Leland Stanford Junior …, priority 2013, published 2014).
Values belong to the molecule of their own block, whether it stands above or below them.

Columns and labels:
[1] = test system: 3×MBT domain of L3MBTL1; test: Triple SILAC pull-down, 3xMBT/3xMBTD355N ratio (cytoplasmic, nuclear and chromatin fractions of 293T cells); format: binding, human; conditions: SILAC ratio, pull-down 3xMBT vs 3xMBTD355N; for 3xMBT/D355N UNC Heavy: experiment with UNC0638 in heavy SILAC media; for 3xMBT/D355N UNC Light: experiment with UNC0638 in light SILAC media;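 as to all read-outs here: proteins quantified with MaxQuant, requiring at least two unique peptides and quantification in both label directions, normalized to the mean of proteins from a digested loading control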
[2] = target: T1, G9a and GLP (Homo sapiens, UniProt Q96KQ7+Q9H9B1); test: Triple SILAC pull-down after UNC0638 treatment of 293T cells, DMSO/UNC0638 ratio of protein captured by 3×MBT; format: cell-based; parameters: cells were treated for 24 hours with UNC0638 at 2.5 μM or DMSO vehicle control; endogenous in cells; host or cells: HEK 293T; conditions: for Relative to UNC0638 UNC Heavy / Relative to UNC0638 UNC Light: SILAC ratio DMSO/UNC0638 of protein pulled down with 3xMBT; for Relative to UNC0638 UNC Heavy: UNC0638 in heavy SILAC media; for Relative to UNC0638 UNC Light: UNC0638 in light SILAC media; for Relative to UNC0638 Average: average of UNC Light and UNC Heavy experiments;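 as to all read-outs here: mass spectrometry (Q-Exactive) SILAC quantitation, DMSO/UNC0638 ratio computed after subtracting 3×MBTD355N mutant pull-down background, only proteins with at least twofold 3×MBT over mutant signal considered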
T1 sequence (Q96KQ7 2-1210 limits assumed): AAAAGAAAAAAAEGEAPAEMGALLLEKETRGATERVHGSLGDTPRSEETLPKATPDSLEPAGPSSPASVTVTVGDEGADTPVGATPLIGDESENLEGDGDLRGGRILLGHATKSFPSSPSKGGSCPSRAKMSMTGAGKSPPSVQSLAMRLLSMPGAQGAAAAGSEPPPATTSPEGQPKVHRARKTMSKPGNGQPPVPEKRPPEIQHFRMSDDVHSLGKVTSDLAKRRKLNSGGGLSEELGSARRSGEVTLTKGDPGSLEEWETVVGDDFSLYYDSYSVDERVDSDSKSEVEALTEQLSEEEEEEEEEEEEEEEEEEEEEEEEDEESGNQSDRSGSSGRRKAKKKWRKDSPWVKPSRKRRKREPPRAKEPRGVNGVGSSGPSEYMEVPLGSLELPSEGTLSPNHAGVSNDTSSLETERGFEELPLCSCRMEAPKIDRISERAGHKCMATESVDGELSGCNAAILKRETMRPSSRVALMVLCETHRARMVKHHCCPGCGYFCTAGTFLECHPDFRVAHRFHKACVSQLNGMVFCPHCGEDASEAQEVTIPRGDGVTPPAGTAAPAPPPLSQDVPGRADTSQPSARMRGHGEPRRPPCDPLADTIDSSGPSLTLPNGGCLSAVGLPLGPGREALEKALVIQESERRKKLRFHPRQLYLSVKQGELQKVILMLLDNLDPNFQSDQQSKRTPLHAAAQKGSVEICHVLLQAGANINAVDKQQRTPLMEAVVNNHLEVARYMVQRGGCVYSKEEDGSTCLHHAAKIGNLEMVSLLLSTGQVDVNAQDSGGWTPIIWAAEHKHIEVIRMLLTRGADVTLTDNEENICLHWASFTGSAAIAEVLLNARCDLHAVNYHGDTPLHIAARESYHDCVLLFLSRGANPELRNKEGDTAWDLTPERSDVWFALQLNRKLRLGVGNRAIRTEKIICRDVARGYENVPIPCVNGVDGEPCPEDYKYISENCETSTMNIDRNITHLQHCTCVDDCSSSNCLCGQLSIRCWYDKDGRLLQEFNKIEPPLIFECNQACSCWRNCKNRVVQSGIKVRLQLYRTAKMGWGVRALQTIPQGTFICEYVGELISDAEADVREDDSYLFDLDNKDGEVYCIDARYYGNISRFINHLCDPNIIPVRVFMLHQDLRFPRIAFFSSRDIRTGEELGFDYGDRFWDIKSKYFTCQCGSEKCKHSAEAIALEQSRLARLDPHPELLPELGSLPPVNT
T1 sequence (Q9H9B1 2-1298 limits assumed): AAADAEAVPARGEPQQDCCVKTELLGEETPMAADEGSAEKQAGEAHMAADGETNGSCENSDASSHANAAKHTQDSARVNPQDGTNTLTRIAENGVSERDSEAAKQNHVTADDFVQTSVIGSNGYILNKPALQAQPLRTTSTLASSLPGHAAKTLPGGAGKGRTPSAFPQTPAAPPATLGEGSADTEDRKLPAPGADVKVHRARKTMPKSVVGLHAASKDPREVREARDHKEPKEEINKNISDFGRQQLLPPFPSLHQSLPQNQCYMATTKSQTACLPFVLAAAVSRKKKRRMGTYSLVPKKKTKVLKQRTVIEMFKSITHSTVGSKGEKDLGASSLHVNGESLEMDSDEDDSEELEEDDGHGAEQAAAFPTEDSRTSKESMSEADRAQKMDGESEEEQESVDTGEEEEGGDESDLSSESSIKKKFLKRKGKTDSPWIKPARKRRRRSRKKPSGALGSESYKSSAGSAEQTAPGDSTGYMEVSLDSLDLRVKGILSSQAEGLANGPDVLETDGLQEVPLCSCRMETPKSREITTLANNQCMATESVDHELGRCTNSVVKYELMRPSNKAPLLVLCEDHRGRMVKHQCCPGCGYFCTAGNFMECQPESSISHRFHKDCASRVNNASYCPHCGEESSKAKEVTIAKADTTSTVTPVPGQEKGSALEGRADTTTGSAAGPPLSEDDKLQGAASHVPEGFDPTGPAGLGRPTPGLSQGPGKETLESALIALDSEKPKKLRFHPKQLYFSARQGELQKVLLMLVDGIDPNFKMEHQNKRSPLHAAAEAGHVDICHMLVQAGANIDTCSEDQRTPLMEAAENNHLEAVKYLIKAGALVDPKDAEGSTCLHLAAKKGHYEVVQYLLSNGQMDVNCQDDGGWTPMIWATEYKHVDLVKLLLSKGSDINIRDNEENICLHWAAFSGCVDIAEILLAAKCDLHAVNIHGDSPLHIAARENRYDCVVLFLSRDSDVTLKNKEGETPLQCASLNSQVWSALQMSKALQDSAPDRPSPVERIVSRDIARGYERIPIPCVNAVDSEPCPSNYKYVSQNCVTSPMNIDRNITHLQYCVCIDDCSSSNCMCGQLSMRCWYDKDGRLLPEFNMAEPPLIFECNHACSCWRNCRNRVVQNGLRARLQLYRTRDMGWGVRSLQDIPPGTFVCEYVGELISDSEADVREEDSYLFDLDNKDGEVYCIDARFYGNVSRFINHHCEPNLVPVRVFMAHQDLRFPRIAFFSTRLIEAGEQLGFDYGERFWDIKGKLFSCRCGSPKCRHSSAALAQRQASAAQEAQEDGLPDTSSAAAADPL

B1: HNRNPH2 (protein, UniProt P55795 1-449, looked up)
Heterogeneous nuclear …: MMLSTEGREGFVVKVRGLPWSCSADEVMRFFSDCKIQNGTSGIRFIYTREGRPSGEAFVELESEEEVKLALKKDRETMGHRYVEVFKSNSVEMDWVLKHTGPNSPDTANDGFVRLRGLPFGCSKEEIVQFFSGLEIVPNGMTLPVDFQGRSTGEAFVQFASQEIAEKALKKHKERIGHRYIEIFKSSRAEVRTHYDPPRKLMAMQRPGPYDRPGAGRGYNSIGRGAGFERMRRGAYGGGYGGYDDYGGYNDGYGFGSDRFGRDLNYCFSGMSDHRYGDGGSSFQSTTGHCVHMRGLPYRATENDIYNFFSPLNPMRVHIEIGPDGRVTGEADVEFATHEDAVAAMAKDKANMQHRYVELFLNSTAGTSGGAYDHSYVELFLNSTAGASGGAYGSQMMGGMGLSNQSSYGGPASQQLSGGYGGGYGGQSSMSGYDQVLQENSSDYQSNLA
3xMBT/D355N UNC Heavy [1]: 1.02 log base 2
3xMBT/D355N UNC Light [1]: 2.68 log base 2
Relative to UNC0638 UNC Heavy [2]: 0.18 log base 2
Relative to UNC0638 UNC Light [2]: 0.32 log base 2
Relative to UNC0638 Average [2]: 0.25 log base 2

B2: PDCD2L (protein, UniProt Q9BRP1 2-358, looked up)
Programmed cell death protein …: AAVLKPVLLGLRDAPVHGSPTGPGAWTASKLGGIPDALPTVAAPRPVCQRCGQPLALVVQVYCPLEGSPFHRLLHVFACACPGCSTGGARSWKVFRSQCLQVPEREAQDAQKQGNSLAAEDWCEGADDWGSDTEEGPSPQFTLDFGNDASSAKDVDWTARLQDLRLQDAVLGAAHPVPPGLPLFLPYYICVADEDDYRDFVNLDHAHSLLRDYQQREGIAMDQLLSQSLPNDGDEKYEKTIIKSGDQTFYKFMKRIAACQEQILRYSWSGEPLFLTCPTSEVTELPACSQCGGQRIFEFQLMPALVSMLKSANLGLSVEFGTILVYTCEKSCWPPNHQTPMEEFCIIQEDPDELLFK
3xMBT/D355N UNC Heavy [1]: 2.68 log base 2
3xMBT/D355N UNC Light [1]: 3.19 log base 2
Relative to UNC0638 UNC Heavy [2]: 0.22 log base 2
Relative to UNC0638 UNC Light [2]: 0.28 log base 2
Relative to UNC0638 Average [2]: 0.25 log base 2

Second part, led by results:

Relative to UNC0638 UNC Heavy [2]: 0.17 log base 2
Relative to UNC0638 UNC Light [2]: 0.33 log base 2
Relative to UNC0638 Average [2]: 0.25 log base 2
B3: SF3B2 (protein, UniProt Q13435 1-895, looked up)
Splicing factor 3B subunit 2: MATEHPEPPKAELQLPPPPPPGHYGAWAAQELQAKLAEIGAPIQGNREELVERLQSYTRQTGIVLNRPVLRGEDGDKAAPPPMSAQLPGIPMPPPPLGLPPLQPPPPPPPPPPGLGLGFPMAHPPNLGPPPPLRVGEPVALSEEERLKLAQQQAALLMQQEERAKQQGDHSLKEHELLEQQKRAAVLLEQERQQEIAKMGTPVPRPPQDMGQIGVRTPLGPRVAAPVGPVGPTPTVLPMGAPVPRPRGPPPPPGDENREMDDPSVGPKIPQALEKILQLKESRQEEMNSQQEEEEMETDARSSLGQSASETEEDTVSVSKKEKNRKRRNRKKKKKPQRVRGVSSESSGDREKDSTRSRGSDSPAADVEIEYVTEEPEIYEPNFIFFKRIFEAFKLTDDVKKEKEKEPEKLDKLENSAAPKKKGFEEEHKDSDDDSSDDEQEKKPEAPKLSKKKLRRMNRFTVAELKQLVARPDVVEMHDVTAQDPKLLVHLKATRNSVPVPRHWCFKRKYLQGKRGIEKPPFELPDFIKRTGIQEMREALQEKEEQKTMKSKMREKVRPKMGKIDIDYQKLHDAFFKWQTKPKLTIHGDLYYEGKEFETRLKEKKPGDLSDELRISLGMPVGPNAHKVPPPWLIAMQRYGPPPSYPNLKIPGLNSPIPESCSFGYHAGGWGKPPVDETGKPLYGDVFGTNAAEFQTKTEEEEIDRTPWGELEPSDEESSEEEEEEESDEDKPDETGFITPADSGLITPGGFSSVPAGMETPELIELRKKKIEEAMDGSETPQLFTVLPEKRTATVGGAMMGSTHIYDMSTVMSRKGPAPELQGVEVALAPEELELDPMAMTQKYEEHVREQQAQVEKEDFSDMVAEHAAKQKQKKRKAQPQDSRGGSKKYKEFKF
3xMBT/D355N UNC Heavy [1]: 3.89 log base 2
3xMBT/D355N UNC Light [1]: 3.33 log base 2

Relative to UNC0638 UNC Heavy [2]: −0.16 log base 2
Relative to UNC0638 UNC Light [2]: 0.65 log base 2
Relative to UNC0638 Average [2]: 0.25 log base 2
B4: ZC3HAV1 (protein, UniProt Q7Z2W4 2-902, looked up)
Zinc finger CCCH-type …: ADPEVCCFITKILCAHGGRMALDALLQEIALSEPQLCEVLQVAGPDRFVVLETGGEAGITRSVVATTRARVCRRKYCQRPCDNLHLCKLNLLGRCNYSQSERNLCKYSHEVLSEENFKVLKNHELSGLNKEELAVLLLQSDPFFMPEICKSYKGEGRQQICNQQPPCSRLHICDHFTRGNCRFPNCLRSHNLMDRKVLAIMREHGLNPDVVQNIQDICNSKHMQKNPPGPRAPSSHRRNMAYRARSKSRDRFFQGSQEFLASASASAERSCTPSPDQISHRASLEDAPVDDLTRKFTYLGSQDRARPPSGSSKATDLGGTSQAGTSQRFLENGSQEDLLHGNPGSTYLASNSTSAPNWKSLTSWTNDQGARRKTVFSPTLPAARSSLGSLQTPEAVTTRKGTGLLSSDYRIINGKSGTQDIQPGPLFNNNADGVATDITSTRSLNYKSTSSGHREISSPRIQDAGPASRDVQATGRIADDADPRVALVNDSLSDVTSTTSSRVDDHDSEEICLDHLCKGCPLNGSCSKVHFHLPYRWQMLIGKTWTDFEHMETIEKGYCNPGIHLCSVGSYTINFRVMSCDSFPIRRLSTPSSVTKPANSVFTTKWIWYWKNESGTWIQYGEEKDKRKNSNVDSSYLESLYQSCPRGVVPFQAGSRNYELSFQGMIQTNIASKTQKDVIRRPTFVPQWYVQQMKRGPDHQPAKTSSVSLTATFRPQEDFCFLSSKKYKLSEIHHLHPEYVRVSEHFKASMKNFKIEKIKKIENSELLDKFTWKKSQMKEEGKLLFYATSRAYVESICSNNFDSFLHETHENKYGKGIYFAKDAIYSHKNCPYDAKNVVMFVAQVLVGKFTEGNITYTSPPPQFDSCVDTRSNPSVFVIFQKDQVYPQYVIEYTEDKACVIS
3xMBT/D355N UNC Heavy [1]: 2.03 log base 2
3xMBT/D355N UNC Light [1]: 1.92 log base 2
